The values that follow come from US20210155689A1 (SHANGHAI PHARMAEXPLORER, published 2021).

In experiment [1] the target is T1, LAG-3-hFc protein (human LAG-3 extracellular region with hFc tag) (human, UniProt P18627 23-450).
T1 construct: also called hLAG-3-hFc; LAG-3 protein; not shown: human IgG Fc fragment (hFc) of the pCpC vector
T1 sequence: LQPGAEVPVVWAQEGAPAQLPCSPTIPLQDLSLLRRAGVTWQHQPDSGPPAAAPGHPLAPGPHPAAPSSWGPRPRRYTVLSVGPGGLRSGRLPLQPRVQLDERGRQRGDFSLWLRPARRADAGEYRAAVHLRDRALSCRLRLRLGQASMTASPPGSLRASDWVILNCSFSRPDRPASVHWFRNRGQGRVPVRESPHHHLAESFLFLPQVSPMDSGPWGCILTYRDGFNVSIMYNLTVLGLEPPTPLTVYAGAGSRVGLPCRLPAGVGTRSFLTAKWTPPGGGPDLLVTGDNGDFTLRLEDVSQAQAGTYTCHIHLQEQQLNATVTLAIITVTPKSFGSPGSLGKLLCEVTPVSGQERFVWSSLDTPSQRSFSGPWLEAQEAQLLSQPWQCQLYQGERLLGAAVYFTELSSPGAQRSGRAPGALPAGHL
In words: FACS, inhibition of LAG-3-hFc binding to MHC II on Raji cells, antibody 7.407 nM. Here is the method: (§1) The FACS reaction plate incubating the Raji cells was centrifuged to discard the supernatant. The above mixture was added as 100 μl per well to Raji cells and incubated on ice for 1-2 hours. The plate was washed twice with blocking solution (PBS, 2% fetal bovine serum) by centrifugation, added with 100 microliters of fluorescent (Alexa 488)-labeled secondary antibodies per well, and incubated on ice for 1.0 hours. The plate was washed 2-3 times by centrifugation with blocking solution (PBS, 2% fetal bovine serum), added with 100 microliters of PBS per well to suspend cells, and detected using FACS (FACS Calibur, BD) and the results were analyzed. Wherein, the IgG control was murine IgG, and the data in the table is the inhibition rate (%).
(In general: In flow cytometry, cells or beads pass a laser one at a time.)

In experiment [2] the target is T2, human LAG-3 on cells (HEK293-hLAG-3 stable cell line) (human, UniProt P18627 23-525).
T2 sequence: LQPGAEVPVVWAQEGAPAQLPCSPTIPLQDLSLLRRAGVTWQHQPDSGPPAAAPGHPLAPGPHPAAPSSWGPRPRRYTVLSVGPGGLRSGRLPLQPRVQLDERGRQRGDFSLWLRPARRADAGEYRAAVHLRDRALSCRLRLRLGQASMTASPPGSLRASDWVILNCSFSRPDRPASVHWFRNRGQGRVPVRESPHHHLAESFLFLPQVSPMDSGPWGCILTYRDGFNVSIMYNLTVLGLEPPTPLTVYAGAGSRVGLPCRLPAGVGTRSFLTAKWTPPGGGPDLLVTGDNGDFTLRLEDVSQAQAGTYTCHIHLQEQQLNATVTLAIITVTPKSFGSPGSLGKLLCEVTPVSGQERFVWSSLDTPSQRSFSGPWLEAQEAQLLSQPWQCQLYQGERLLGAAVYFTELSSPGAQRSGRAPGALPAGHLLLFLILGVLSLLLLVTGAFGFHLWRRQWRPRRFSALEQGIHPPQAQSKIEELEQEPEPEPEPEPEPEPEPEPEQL
In words: FACS, HEK293-hLAG-3, antibody 0.000 nM. The text has this: The pIRES plasmid with the monkey-derived full-length gene was transfected into the HEK293 cell line to construct a HEK293 stable cell line containing monkey LAG-3 (herein referred to as HEK293-cLAG-3 stable cell line). The HEK293-hLAG-3 stable cell line and HEK293-cLAG-3 stable cell line were expanded in a T-75 cell culture flask to a 90% confluence. The medium was aspirated, and the cells were washed with HBSS (Hanks' Balanced Salt Solution) 1-2 times, then treated with a enzyme-free cell dissociation fluid (Versene solution: Life technology) and the cells were collected. The cells were washed with HBSS buffer for 1-2 times. After counted, the cells were diluted with HBSS to 1-2×10⁶ cells per ml, added with 1% goat serum blocking solution, incubated on ice for 20-30 minutes, and then washed with HBSS for 2 times by centrifugation. The collected cells were suspended in the FACS buffer (HBSS+1% BSA) to 2×10⁶ cells/ml, added as 100 microliters per well to a 96-well FACS reaction plate, added with 100 microliters per well of the antibody sample to be tested, incubated on ice for 1-2 hours. The plate was washed twice with the FACS buffer by centrifugation, added with 100 microliters of fluorescent (Alexa 488)-labeled secondary antibodies per well, and incubated on ice for 0.5-1.0 hours. The plate was washed 2-3 times with FACS buffer by centrifugation, added with 100 μl fixative solution (4% Paraformaldehyde) per well to suspend the cells. 5-10 minutes later, it was washed 1-2 times with FACS buffer by centrifugation. The cells were suspended with 100 microliters of FACS buffer, FACS (FACSCalibur, BD) was used for detection and the results were analyzed.

Experiment [3] has as its target T3, human LAG-3 protein with hFc tag (hLAG-3-hFc protein) (human, UniProt P18627 23-450).
T3 construct: also called immunogen 1; LAG-3 extracellular domain protein; not shown: human IgG Fc fragment (hFc) of the pCpC vector
T3 sequence: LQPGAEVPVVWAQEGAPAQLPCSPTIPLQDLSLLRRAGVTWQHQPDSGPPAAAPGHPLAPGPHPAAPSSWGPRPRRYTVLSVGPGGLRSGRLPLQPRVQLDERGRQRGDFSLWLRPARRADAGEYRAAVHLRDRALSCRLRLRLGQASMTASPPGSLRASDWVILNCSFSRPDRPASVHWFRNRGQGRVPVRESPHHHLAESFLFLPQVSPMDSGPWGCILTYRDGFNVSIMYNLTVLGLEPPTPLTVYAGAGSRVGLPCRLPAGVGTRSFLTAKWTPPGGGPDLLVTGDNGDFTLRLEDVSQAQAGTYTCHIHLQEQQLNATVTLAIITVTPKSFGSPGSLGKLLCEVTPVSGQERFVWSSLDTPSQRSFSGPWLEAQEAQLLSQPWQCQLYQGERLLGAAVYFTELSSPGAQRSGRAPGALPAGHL
The experiment in a line: ELISA, hLAG-3-hFc coated; 0.0667 nM. How it is done: (§2) The plate was sealed with plastic film and incubated overnight at 4° C. The plate was washed 2 times with the plate washing solution (PBS+0.01% Tween20) on the next day, and added with the blocking solution (PBS+0.01% Tween20+1% BSA) and blocked at room temperature for 1-2 hours. The blocking solution was poured out, and the plate was added with 50-100 μl of the antibody sample to be tested to each well, incubated at 37° C. for 1-2 hours, and washed 2-3 times with a plate washing solution (PBS+0.01% Tween20). HRP (horseradish peroxidase) labeled secondary antibody was added, and the plate was incubated at 37° C. for 1-2 hours, and washed 2-3 times with a plate washing solution (PBS+0.01% Tween20). 100 μl of TMB substrate was added to each well. After incubated at room temperature for 15-30 minutes, the plate was added with 100 μl of stop solution (1.0N HCl) to each well.
On the technique in general: An ELISA detects its analyte on a solid surface through an enzyme-linked reagent.

For experiment [4], the target named is T3, human LAG-3 protein with hFc tag …. In words: ELISA, hLAG-3-hFc coated; 0.0001 nM. How it is done:
as §2

Experiment [5] shares this target. In words: FACS, blocks LAG-3-hFc binding to MHC II on Raji; 0.274 nM. Here is the method:
as §1

B1: 556F6B8 mouse-human chimeric antibody (antibody, V domains shown)
VH: RVQLKQSGPGLVQPSQSLSITCTVSGFSLIKYGVHWVRQSPGEGLEWLGVIWRGGITDYNAAFMSRLSITKDNSKSQVFFKMNSLQADDTAIYYCAKWDGPLAMDYWGQGTSVTVSS
VL: DIVMTQSHKFLSTSVGDRVSITCKASQDVGTTVAWYQQKPGQSPKLLIYWASTRHTGVPDRFTGSGSGTDFTLTISNVQSEDLADYFCQQYSSYPYTFGGGTKLEIK
notes: also called mAb123-556F6B8; 556F8B8
On to B1, for which the “Inhibition rate (%)” value in experiment [1] worked out at 82.7%. For the same molecule, in experiment [2], the Mean fluorescence intensity was determined as 3.3.

B2: 556F6B8 (LAG-3 mouse-human chimeric antibody) (antibody, V domains shown)
VH: RVQLKQSGPGLVQPSQSLSITCTVSGFSLIKYGVHWVRQSPGEGLEWLGVIWRGGITDYNAAFMSRLSITKDNSKSQVFFKMNSLQADDTAIYYCAKWDGPLAMDYWGQGTSVTVSS
VL: DIVMTQSHKFLSTSVGDRVSITCKASQDVGTTVAWYQQKPGQSPKLLIYWASTRHTGVPDRFTGSGSGTDFTLTISNVQSEDLADYFCQQYSSYPYTFGGGTKLEIK
notes: also called 556F8B8
For the molecule B2, the OD450 in experiment [3] stood at 1.94 OD450; in experiment [4], 0.13 OD450.

B3: 556F6B8 (mouse antibody purified from hybridoma) (antibody, V domains shown)
VH: RVQLKQSGPGLVQPSQSLSITCTVSGFSLIKYGVHWVRQSPGEGLEWLGVIWRGGITDYNAAFMSRLSITKDNSKSQVFFKMNSLQADDTAIYYCAKWDGPLAMDYWGQGTSVTVSS
VL: DIVMTQSHKFLSTSVGDRVSITCKASQDVGTTVAWYQQKPGQSPKLLIYWASTRHTGVPDRFTGSGSGTDFTLTISNVQSEDLADYFCQQYSSYPYTFGGGTKLEIK
notes: also called mAb123-556F6B8
As to B3, the “Inhibition rate (%)” value in experiment [5] was found to be 6%.

B4: 405B8H3 (mouse antibody purified from hybridoma) (antibody, V domains shown)
VH: QVQLQQSGAELVRPGASVTLSCKASGYTFTDYEMHWVKQTPVHGLEWIGATDPETGNSAYNQKFKGKAIMTADKSSSTAYMELRSLTSEDSAVYYCISTGWNDWGQGTSLTVSS
VL: DIKMTQSPSSMYASLGERVTITCKASQDINSYLSWFQQKPGKSPKTLIYRADRLLDGVPSRFSGSGSGQDYSLTISSLEYGDMGIYYCLQYDEFPYTFGGGTKLEIK
notes: also called mAb103-405B8H3; 405B81-13
Consider B4, for which the “Inhibition rate (%)” value in experiment [5] amounted to 2.1%.

B5: 105F1E10 (mouse antibody purified from hybridoma) (antibody, V domains shown)
VH: EVQLQQSGPELVKPGASVKMSCRASGYTFTDFKMHWMKQSHGKSLEWIGYIAPNNGGTAYNQKFRGKATLTVNESSNTAYMELRSLTSEDSAVYYCVDWDDVDYWGQGTTLTVSS
VL: DIKMTQSPSSMYASLGERVTITCKASQDINSYLSWFQQKSGKSPKTLIYRANRLVDGVPSRFSGSGSGQDYSLTISSLEYEDMGIYYCLQYVEFPLTFGAGTKLELK
notes: also called mAb009-105F1E10
Consider B5, for which the “Inhibition rate (%)” value in experiment [5] is -8.3%.

B6: 405B8H3 (LAG-3 mouse-human chimeric antibody) (antibody, V domains shown)
VH: QVQLQQSGAELVRPGASVTLSCKASGYTFTDYEMHWVKQTPVHGLEWIGATDPETGNSAYNQKFKGKAIMTADKSSSTAYMELRSLTSEDSAVYYCISTGWNDWGQGTSLTVSS
VL: DIKMTQSPSSMYASLGERVTITCKASQDINSYLSWFQQKPGKSPKTLIYRADRLLDGVPSRFSGSGSGQDYSLTISSLEYGDMGIYYCLQYDEFPYTFGGGTKLEIK
notes: also called mouse-human chimeric antibody 405B8H3
Consider B6, for which the OD450 in experiment [3] is 2.25 OD450; in experiment [4], 0.11 OD450.

B7: 105F1E10 (LAG-3 mouse-human chimeric antibody) (antibody, V domains shown)
VH: EVQLQQSGPELVKPGASVKMSCRASGYTFTDFKMHWMKQSHGKSLEWIGYIAPNNGGTAYNQKFRGKATLTVNESSNTAYMELRSLTSEDSAVYYCVDWDDVDYWGQGTTLTVSS
VL: DIKMTQSPSSMYASLGERVTITCKASQDINSYLSWFQQKSGKSPKTLIYRANRLVDGVPSRFSGSGSGQDYSLTISSLEYEDMGIYYCLQYVEFPLTFGAGTKLELK
As to B7, the values for the OD450 in experiment [3] and in experiment [4] were 1.29 OD450 and 0.13 OD450, respectively.

B8: 409B11E12 (mouse antibody purified from hybridoma) (antibody, V domains shown)
VH: QVQLQQSGAELVRPGASVTLSCKASGYTFTDYEMHWVKQTTVHGLEWIGATDPETSYSAYNQKFKGKAILTADKSSSTAYMELRSLTSEDSAVYYCIATGWNDWGQGTSLTVSS
VL: DLKMTQSPSSMYASLGERVTITCKASQDINSYLSWFQQKPGKSPKTLIYRANRLLDGVPSRFSGSGSGQDYSLTISSLEYEDMGIYYCLQYDEFPYTFGGGTKLEIK
notes: also called mAb104-409B11E12
In the case of B8, the “Inhibition rate (%)” value in experiment [5] is -3.9%.

B9: 409B11E12 (LAG-3 mouse-human chimeric antibody) (antibody, V domains shown)
VH: QVQLQQSGAELVRPGASVTLSCKASGYTFTDYEMHWVKQTTVHGLEWIGATDPETSYSAYNQKFKGKAILTADKSSSTAYMELRSLTSEDSAVYYCIATGWNDWGQGTSLTVSS
VL: DLKMTQSPSSMYASLGERVTITCKASQDINSYLSWFQQKPGKSPKTLIYRANRLLDGVPSRFSGSGSGQDYSLTISSLEYEDMGIYYCLQYDEFPYTFGGGTKLEIK
As to B9, the OD450 was 2.16 OD450 in experiment [3] and 0.12 OD450 in experiment [4].

B10: 409D4E10 (mouse antibody purified from hybridoma) (antibody, V domains shown)
VH: QVQLQQSGAELVRPGASVTLSCKASGNTFTDYEMHWVKQTPVHGLEWIGATDPETDNTAYNQKFKGKAILTTDKSSSTAYMELRSLTSEDSAVYYCITSGWNDWGQGTSLTVSS
VL: DIKMTQSPSSMYASLGERVTITCKASQDINSYLSWFQQKPGKSPKTLIYRANRLLDGVPSRFSGSGSGQDYSLTISSLEYEDMGIYYCLQYNEFPYTFGGGTKLEIK
notes: also called mAb112-409D4E10
As to B10, the “Inhibition rate (%)” value in experiment [5] was -7.5%.

B11: 409D4E10 (LAG-3 mouse-human chimeric antibody) (antibody, V domains shown)
VH: QVQLQQSGAELVRPGASVTLSCKASGNTFTDYEMHWVKQTPVHGLEWIGATDPETDNTAYNQKFKGKAILTTDKSSSTAYMELRSLTSEDSAVYYCITSGWNDWGQGTSLTVSS
VL: DIKMTQSPSSMYASLGERVTITCKASQDINSYLSWFQQKPGKSPKTLIYRANRLLDGVPSRFSGSGSGQDYSLTISSLEYEDMGIYYCLQYNEFPYTFGGGTKLEIK
For the molecule B11, the figures for the OD450 in experiment [3] and in experiment [4] were 3.1 OD450 and 0.13 OD450, respectively.
